{
  "source": "patent US20100173005A1",
  "about": "“MICROPARTICLE FORMULATIONS FOR SUSTAINED-RELEASE OF BIOACTIVE COMPOUNDS” (POWDER PHARMACEUTICALS INCORPORATED, priority 1999, published 2010)",
  "key": {"[1]": {"assay": "Sustained release of lysozyme from sulfated dextran hydrogel beads: PBS wash then high salt elution, UV detection", "format": "physicochemical", "source_text": "A preparation of cross-linked, sulfated dexan affinity chromatography resin beads were obtained from a commercial source (Sigma. St, Louis, Mo.). More particularly, 4% cross-linked sulfated beaded dextran was obtained as a lyophilized powder stabilized in lactose. The sulfate ligand will bind with a charged guest substance (e.g. a peptide or protein) at low salt concentration. This binding is reversible and the bound guest can be desorbed at a high salt concentration.\nIn the study, lysozyme (Sigma) was loaded into the beads using the techniques described in commonly held International Application No. PCT/GB00/00349.\nParticularly, each gram of the sulfated dextran beads was washed with approximately 3×500 ml deionized water. Excess water was removed by vacuum filtration. A loading solution was prepared by dissolving 4.00 g lysozyme in 200 ml deionized water, yielding a 20 mg/ml solution. The loading solution was added to the hydrated dextran beads at a 1:1 ratio to provide a suspension. The suspension was stirred for one hour, and excess solution was drained from the hydrated beads. The loaded beads were then divided into two portions. The first portion (5.7 cc, experimental) was placed into a column (Econo column, BioRad, Hercules, Calif.) and washed with a phosphate buffered saline (PBS) solution (pH 7.4) for 19.6 hours, then eluted with 21.2 ml of a high salt elution buffer (1.0M ammonium sulfate, 50 mM sodium phosphate, pH 7.2). […] The amount of lysozyme released from the dextran beads during the PBS wash was determined by comparison against the amount of lysozyme eluted by the elution solution for both the experimental and the control portions.\nLysozyme concentration was determined using a UV detector (BioRad UV detector). A standard curve (UV absorption vs lysozyme concentration) was prepared by measuring the UV absorption of stock lysozyme solutions at different concentration ranging from 1 mg/ml to 4 mg/ml, Concentrations of the unknowns were then determined by extrapolation of the standard curve. […]"}, "[2]": {"assay": "Repeat sustained release study of lysozyme from sulfated dextran beads: PBS elution at 0.84 ml/min, HPLC analysis", "format": "physicochemical", "procedure": "The sustained release study described in the above Example was repeated except, in this instance, a different elution rate was used to determine if the rate of release of the lysozyme guest substance from the dextran is a function of the flow rate of the elution buffer.\nMore particularly, sulfated dextran beads were loaded with lysozyme as described in the above Example. The specifics of the loading were as follows: 42.4 g of the hydrated dextran beads was stirred in 100 ml of lysozyme solution (to yield a 20.11 mg/ml solution) for 1 hour. The loaded beads were then loaded into a column as described above for a further sustained release study.\nFor the PBS elution, the PBS wash (pH 7.4) was used to elute lysozyme from the beads at a flow rate of 0.84 ml/min for 20.6 hours. The eluted solution was collected in fractions, and the elution fractions were analyzed with HPLC for lysozyme concentration using a Vydac C18 HPLC column. For the high-salt elution, the remaining lysozyme in the beads was then eluted with the high-salt elution buffer at a rate of […].\nThe amount of lysozyme protein that eluted with the PBS wash was 39.51 mg and, from the high salt elution, the amount of lysozyme was 40.34 mg. Accumulated percent lysozyme release (Y) was plotted against elution time (X)."}},
  "data": [
    {"substance": "lysozyme", "values": [
      {"measurement": "amount of lysozyme eluted in the elution buffer", "setting": "[1]; control portion, immediately eluted with high salt elution buffer alone", "value": 10.5, "unit": "mg/ml wet beads"},
      {"measurement": "amount of lysozyme eluted in the elution buffer", "setting": "[1]; experimental portion (PBS washed beads, 19.6 hours), high salt elution buffer 1.0M ammonium sulfate, 50 mM sodium phosphate, pH 7.2", "value": 3.72, "unit": "mg/ml beads"},
      {"measurement": "amount of lysozyme released during the PBS wash", "setting": "[1]; experimental portion, PBS pH 7.4 wash for 19.6 hours, UV detector", "value": "not detectable"},
      {"measurement": "release rate (slope of accumulated percent release vs elution time)", "setting": "[2]; PBS elution at 0.84 ml/min, line equation Y=1.49X+0.242", "value": 1.49, "unit": "%/hr"},
      {"measurement": "amount of lysozyme protein eluted with the PBS wash", "setting": "[2]; PBS pH 7.4, flow rate 0.84 ml/min for 20.6 hours, HPLC", "value": 39.51, "unit": "mg"},
      {"measurement": "amount of lysozyme from the high salt elution", "setting": "[2]; remaining lysozyme eluted with high-salt elution buffer after the PBS wash", "value": 40.34, "unit": "mg"}
    ]}
  ]
}
